From publication PMC4282539 come the findings set out here.

The assay addresses NNN-GFPglyc (GnTI CTS region fused to the glycosylation reporter GFPglyc) (Nicotiana tabacum (legend of Figure 1 and methods); the running text says N. benthamiana). Kind of assay: FRET or BRET; two-photon FRET-FLIM in living N. benthamiana leaf epidermal cells, Golgi bodies, leaves treated with 25 uM latrunculin B; donor NNN-GFPglyc, acceptor CTS-mRFP; a decrease of the donor lifetime by 0.20 ns or 8% taken as interaction. A general note: BRET reads energy transfer from a luciferase to a nearby fluorophore.

The substance “RNN-mRFP (chimeric CTS region: ST cytoplasmic tail, GnTI transmembrane domain and stem, fused to mRFP) (from UniProt P13721 1-9)” gave an FRET efficiency E of 10.8%, a donor lifetime with acceptor (tau DA) of 2.18 ns and a lifetime contrast (delta tau) of 0.26 ns.
The corresponding values for “NNN-mRFP (GnTI CTS region fused to mRFP) (domain or fragment)” are 14.6%, 2.08 ns and 0.36 ns.
